Patent US20090192084A1
Each block holds one substance with its values, some of them ahead of it.

Experiments:
Experiment in all cases: Flag co-IP, MudPIT MS, MG132
[1] = biological target: Ubiquitin conjugation factor E4 B, UBE4B (Ufd2ortholog) (human) (UniProt O95155)
Cullin 1 (human) = Cullin 1 (human) (UniProt Q13616)
[2] = biological target: RING finger protein 126. RNE126 (human) (UniProt Q9BV68)
UBR1 (human) = UBR1 (human) (UniProt Q8IWV7)
[3] = biological target: Galectin-3 binding protein. LG3BP (human) (UniProt Q08380)
[4] = biological target: BTB and Kelch domain-containing protein 2, KLHL13 (human) (UniProt Q9P2N7)
[5] = biological target: E3 ubiquitin-protein ligase Topors (human) (UniProt Q9NS56)
Chain of E3 ubiquitin-protein ligase Topors (human) (Q9NS56 whole entry): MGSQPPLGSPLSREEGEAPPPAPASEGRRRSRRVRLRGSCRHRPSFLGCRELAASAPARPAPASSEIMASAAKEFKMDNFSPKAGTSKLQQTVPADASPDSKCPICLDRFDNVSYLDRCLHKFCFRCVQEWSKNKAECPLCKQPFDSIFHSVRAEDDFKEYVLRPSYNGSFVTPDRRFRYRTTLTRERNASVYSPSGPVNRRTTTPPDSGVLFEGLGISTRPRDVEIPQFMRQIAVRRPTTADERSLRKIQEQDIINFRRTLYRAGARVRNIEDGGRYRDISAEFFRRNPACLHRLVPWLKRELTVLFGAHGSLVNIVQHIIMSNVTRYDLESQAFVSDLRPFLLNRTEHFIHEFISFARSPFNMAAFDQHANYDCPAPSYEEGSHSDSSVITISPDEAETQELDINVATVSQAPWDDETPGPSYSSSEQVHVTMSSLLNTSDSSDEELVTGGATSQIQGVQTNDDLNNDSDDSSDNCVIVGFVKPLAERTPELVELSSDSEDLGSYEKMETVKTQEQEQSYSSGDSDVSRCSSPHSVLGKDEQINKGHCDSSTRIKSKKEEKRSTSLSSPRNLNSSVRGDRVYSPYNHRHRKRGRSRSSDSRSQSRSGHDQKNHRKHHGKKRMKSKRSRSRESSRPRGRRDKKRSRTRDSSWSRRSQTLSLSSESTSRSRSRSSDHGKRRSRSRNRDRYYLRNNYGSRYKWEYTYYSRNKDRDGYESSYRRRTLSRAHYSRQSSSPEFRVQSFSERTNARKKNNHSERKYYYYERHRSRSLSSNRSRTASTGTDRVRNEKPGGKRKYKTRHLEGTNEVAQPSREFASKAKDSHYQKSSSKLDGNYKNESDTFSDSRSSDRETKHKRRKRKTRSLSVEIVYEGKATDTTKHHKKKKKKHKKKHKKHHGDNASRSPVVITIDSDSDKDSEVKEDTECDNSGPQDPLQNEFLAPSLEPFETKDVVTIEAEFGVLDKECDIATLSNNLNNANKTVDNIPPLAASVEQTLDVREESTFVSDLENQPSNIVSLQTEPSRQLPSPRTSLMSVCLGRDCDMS

Cullin 4B (human) = Cullin 4B (human) (UniProt Q13620)
Chain of Cullin 4B (human) (Q13620 other isoform, or with tags, fused parts or gaps limits assumed): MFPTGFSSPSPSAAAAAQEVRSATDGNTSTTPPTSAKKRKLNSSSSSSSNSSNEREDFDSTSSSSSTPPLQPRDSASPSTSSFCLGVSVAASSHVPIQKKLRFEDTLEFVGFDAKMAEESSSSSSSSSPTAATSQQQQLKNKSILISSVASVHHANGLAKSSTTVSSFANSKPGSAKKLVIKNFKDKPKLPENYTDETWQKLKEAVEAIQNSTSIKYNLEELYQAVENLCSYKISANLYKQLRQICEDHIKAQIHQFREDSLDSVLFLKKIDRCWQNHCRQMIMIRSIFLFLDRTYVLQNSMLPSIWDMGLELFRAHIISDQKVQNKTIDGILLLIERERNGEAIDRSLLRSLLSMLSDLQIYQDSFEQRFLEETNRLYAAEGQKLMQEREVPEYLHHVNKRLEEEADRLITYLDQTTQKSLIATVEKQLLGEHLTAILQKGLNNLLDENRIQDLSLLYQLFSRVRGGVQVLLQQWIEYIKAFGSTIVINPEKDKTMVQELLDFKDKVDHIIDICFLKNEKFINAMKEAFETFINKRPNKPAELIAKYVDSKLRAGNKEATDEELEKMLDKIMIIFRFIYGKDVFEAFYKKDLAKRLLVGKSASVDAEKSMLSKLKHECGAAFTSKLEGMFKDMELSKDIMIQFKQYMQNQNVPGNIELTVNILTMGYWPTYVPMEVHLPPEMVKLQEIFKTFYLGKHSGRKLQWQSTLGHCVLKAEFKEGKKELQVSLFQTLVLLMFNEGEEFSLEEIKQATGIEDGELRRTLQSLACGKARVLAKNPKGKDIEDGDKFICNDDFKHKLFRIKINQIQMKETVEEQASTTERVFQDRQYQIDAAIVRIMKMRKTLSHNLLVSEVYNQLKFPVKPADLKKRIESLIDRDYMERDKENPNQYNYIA

[6] = biological target: Kelch repeat and BTB domain-containing protein 7, KBTB7 (human) (UniProt Q8WVZ9)
Chain of Kelch repeat and BTB domain-containing protein 7, KBTB7 (human) (Q8WVZ9 whole entry, the tested form may be a part): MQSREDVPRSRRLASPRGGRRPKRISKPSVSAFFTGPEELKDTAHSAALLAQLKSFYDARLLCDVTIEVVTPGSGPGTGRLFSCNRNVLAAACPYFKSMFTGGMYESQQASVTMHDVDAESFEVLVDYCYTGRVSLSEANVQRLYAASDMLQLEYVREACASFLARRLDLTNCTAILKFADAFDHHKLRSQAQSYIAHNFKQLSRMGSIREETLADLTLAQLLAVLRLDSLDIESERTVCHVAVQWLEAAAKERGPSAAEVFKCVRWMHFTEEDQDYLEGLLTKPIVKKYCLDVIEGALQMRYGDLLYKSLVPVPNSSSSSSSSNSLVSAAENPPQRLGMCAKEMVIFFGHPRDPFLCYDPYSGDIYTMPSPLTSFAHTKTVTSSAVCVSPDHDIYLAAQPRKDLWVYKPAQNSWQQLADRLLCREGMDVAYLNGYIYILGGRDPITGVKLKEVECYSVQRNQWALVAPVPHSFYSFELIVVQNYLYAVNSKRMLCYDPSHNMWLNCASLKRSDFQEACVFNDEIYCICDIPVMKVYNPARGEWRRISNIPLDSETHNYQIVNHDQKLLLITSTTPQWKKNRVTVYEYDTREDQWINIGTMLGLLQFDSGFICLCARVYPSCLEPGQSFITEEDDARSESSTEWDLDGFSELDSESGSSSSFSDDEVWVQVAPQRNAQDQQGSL

[7] = biological target: DDB1- and CUL4-associated factor I. VprBP (human) (UniProt Q9Y4B6)
[8] = biological target: RING-box protein 1, RBX1 (human) (UniProt P62877)
Chain of RING-box protein 1, RBX1 (human) (P62877 whole entry): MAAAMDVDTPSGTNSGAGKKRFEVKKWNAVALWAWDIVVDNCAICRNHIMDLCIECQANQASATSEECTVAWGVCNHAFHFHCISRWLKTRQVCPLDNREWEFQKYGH

[9] = biological target: Von Hippel-Lindau disease tumor suppressor, VHL (human) (UniProt P40337)
Chain of Von Hippel-Lindau disease tumor suppressor, VHL (human) (P40337 whole entry, the tested form may be a part): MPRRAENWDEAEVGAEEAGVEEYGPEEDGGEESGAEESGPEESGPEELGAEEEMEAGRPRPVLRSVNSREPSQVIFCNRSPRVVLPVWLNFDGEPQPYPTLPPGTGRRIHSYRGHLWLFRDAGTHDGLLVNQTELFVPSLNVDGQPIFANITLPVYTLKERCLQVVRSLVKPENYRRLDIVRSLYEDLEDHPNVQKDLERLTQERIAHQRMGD

[10] = biological target: Kelch domain-containing protein 3, KLDC3 (human) (UniProt Q9BQ90)
Chain of Kelch domain-containing protein 3, KLDC3 (human) (Q9BQ90 whole entry, the tested form may be a part): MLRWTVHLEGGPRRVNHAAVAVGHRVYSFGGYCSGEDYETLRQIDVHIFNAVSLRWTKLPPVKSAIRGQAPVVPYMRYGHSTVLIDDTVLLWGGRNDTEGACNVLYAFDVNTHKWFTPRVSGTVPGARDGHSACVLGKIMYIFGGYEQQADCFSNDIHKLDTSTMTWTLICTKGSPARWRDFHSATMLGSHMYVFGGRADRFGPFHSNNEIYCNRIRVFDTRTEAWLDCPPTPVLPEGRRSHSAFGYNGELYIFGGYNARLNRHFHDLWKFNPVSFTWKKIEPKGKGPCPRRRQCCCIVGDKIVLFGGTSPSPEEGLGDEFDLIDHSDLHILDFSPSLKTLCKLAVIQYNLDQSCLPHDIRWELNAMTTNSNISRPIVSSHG

[11] = biological target: CUL4- and DDB I-associated WDR protein 2, WDR26 (human) (UniProt Q9H7D7)
Chain of CUL4- and DDB I-associated WDR protein 2, WDR26 (human) (Q9H7D7 whole entry): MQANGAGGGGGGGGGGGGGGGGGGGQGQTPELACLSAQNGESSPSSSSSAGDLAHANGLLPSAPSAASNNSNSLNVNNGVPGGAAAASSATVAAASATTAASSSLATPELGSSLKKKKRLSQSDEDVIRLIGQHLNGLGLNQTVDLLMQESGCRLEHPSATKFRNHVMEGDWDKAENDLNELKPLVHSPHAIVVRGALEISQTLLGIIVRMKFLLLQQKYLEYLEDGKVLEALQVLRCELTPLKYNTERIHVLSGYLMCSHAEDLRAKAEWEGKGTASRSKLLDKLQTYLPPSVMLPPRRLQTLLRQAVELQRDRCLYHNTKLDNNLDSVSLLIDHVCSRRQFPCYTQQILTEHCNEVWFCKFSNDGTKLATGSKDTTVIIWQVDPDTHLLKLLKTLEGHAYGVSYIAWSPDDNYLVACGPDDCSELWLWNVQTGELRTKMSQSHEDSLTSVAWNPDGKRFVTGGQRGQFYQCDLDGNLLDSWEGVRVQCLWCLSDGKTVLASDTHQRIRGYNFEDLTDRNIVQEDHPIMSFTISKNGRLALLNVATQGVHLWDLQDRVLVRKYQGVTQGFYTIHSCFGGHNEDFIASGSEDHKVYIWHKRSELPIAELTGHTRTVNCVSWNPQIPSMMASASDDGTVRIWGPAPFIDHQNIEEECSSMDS

[12] = biological target: Kelch-like protein 22. KLEIL22 (human) (UniProt Q53GT1)
[13] = biological target: Kelch domain-containing protein 2, KLDC2 (human) (UniProt Q9Y2U9)
Chain of Kelch domain-containing protein 2, KLDC2 (human) (Q9Y2U9 whole entry, the tested form may be a part): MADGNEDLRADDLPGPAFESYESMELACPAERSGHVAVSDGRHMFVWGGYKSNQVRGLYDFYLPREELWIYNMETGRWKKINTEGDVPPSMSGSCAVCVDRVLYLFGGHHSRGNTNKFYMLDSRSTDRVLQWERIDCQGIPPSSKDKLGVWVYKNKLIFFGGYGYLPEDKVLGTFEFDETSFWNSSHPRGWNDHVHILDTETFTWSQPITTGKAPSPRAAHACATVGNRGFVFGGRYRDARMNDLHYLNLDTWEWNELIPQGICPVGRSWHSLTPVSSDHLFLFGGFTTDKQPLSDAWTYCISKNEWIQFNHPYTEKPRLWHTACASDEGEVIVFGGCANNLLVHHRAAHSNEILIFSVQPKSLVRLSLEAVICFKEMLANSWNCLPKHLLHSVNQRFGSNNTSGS

Elongin B (human) = Elongin B (human) (UniProt Q15370)
Chain of Elongin B (human) (Q15370 other isoform, or with tags, fused parts or gaps limits assumed): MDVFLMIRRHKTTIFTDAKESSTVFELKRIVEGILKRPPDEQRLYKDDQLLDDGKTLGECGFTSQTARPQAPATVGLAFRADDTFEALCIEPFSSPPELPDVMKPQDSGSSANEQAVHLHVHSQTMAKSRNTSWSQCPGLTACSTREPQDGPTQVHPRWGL

Chain of RING finger protein 126. RNE126 (human) (Q9BV68 2-311 limits assumed): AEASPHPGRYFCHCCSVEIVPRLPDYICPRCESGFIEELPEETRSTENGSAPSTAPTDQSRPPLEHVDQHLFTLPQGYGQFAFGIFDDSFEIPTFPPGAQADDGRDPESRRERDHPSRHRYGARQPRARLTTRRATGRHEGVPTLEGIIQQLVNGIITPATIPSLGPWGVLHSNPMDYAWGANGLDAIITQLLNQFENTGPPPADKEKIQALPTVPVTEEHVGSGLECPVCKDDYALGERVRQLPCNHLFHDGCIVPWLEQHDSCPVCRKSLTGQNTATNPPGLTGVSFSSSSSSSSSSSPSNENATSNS

abundance factor (AF) [1]: 1.5
sequence count [1]: 5
spectrum count [1]: 5
abundance factor (AF) (Cullin 1 (human)): 1.5
sequence count (Cullin 1 (human)): 2
spectrum count (Cullin 1 (human)): 3
Substance: Flag-SAKS1 (from UniProt Q04323 1-297)

abundance factor (AF) [2]: 1.4
sequence count [2]: 2
spectrum count [2]: 2
abundance factor (AF) (UBR1 (human)): 0.4
sequence count (UBR1 (human)): 3
spectrum count (UBR1 (human)): 3
abundance factor (AF) [3]: 1.1
spectrum count [3]: 3
Substance: Flag-UBXD8 (from UniProt Q96CS3 1-445)

abundance factor (AF) [4]: 1.4
sequence count [4]: 4
spectrum count [4]: 4
abundance factor (AF) [5]: 0.6
sequence count [5]: 3
spectrum count [5]: 3
abundance factor (AF) (Cullin 4B (human)): 2.7
sequence count (Cullin 4B (human)): 10
spectrum count (Cullin 4B (human)): 11
abundance factor (AF) [6]: 1
sequence count [6]: 3
spectrum count [6]: 3
abundance factor (AF) [7]: 0.6
sequence count [7]: 3
spectrum count [7]: 4
abundance factor (AF) [8]: 4.1
sequence count [8]: 2
spectrum count [8]: 2
abundance factor (AF) [9]: 2.1
sequence count [9]: 2
spectrum count [9]: 2
abundance factor (AF) [10]: 1.7
sequence count [10]: 3
spectrum count [10]: 3
abundance factor (AF) [11]: 7.2
sequence count [11]: 9
spectrum count [11]: 17
abundance factor (AF) [12]: 2.8
sequence count [12]: 8
spectrum count [12]: 8
abundance factor (AF) [13]: 3.2
sequence count [13]: 4
spectrum count [13]: 6
abundance factor (AF) (Elongin B (human)): 9.7
sequence count (Elongin B (human)): 5
spectrum count (Elongin B (human)): 7
Substance: Flag-UBXD7 (from UniProt O94888 1-489)
